Measurements taken from article PMC9486129, “An evolutionary divergent thermodynamic brake in ZAP-70 fine-tunes the kinetic proofreading in T cells” (The Journal of Biological Chemistry, 2022).
pKd: −log10 of the molar value.

Tests used:
ZAP-70 tSH2 WT (1–256) [1] = test: stopped-flow fluorescence; pre-steady-state tryptophan fluorescence, 10 °C; 100 nM tSH2 domain mixed with 30 μM ITAM peptide in 20 mM Tris pH 8.0, 150 mM NaCl, 5% glycerol, 5 mM β-mercaptoethanol; 1 s (fast) and 200 s (slow) transients; observed rates from one-site association fit
ZAP-70 tSH2 R39A [2] = test: other fluorescence titration; steady-state intrinsic tryptophan fluorescence, 25 °C; 0.5 μM tSH2 domain titrated with ITAM peptide; excitation 295 nm, emission 300-400 nm; Hill equation fit
ZAP-70 tSH2 F117A = test: stopped-flow fluorescence; pre-steady-state tryptophan fluorescence, 10 °C; 100 nM tSH2 domain mixed with 30 μM ITAM peptide in 20 mM Tris pH 8.0, 150 mM NaCl, 5% glycerol, 5 mM β-mercaptoethanol; 1 s (fast) and 200 s (slow) transients; observed rates from one-site association fit
ZAP-70 tSH2 R192A = test: as above
ZAP-70 tSH2 R39A [3] = test: as above
ZAP-70 tSH2 R43P = test: as above
ZAP-70 tSH2 WT (1–256) [4] = test: other fluorescence titration; steady-state intrinsic tryptophan fluorescence, 25 °C; 0.5 μM tSH2 domain titrated with ITAM peptide; excitation 295 nm, emission 300-400 nm; Hill equation fit
[5] = target: ZAP-70 tandem SH2 domain R192A (1-256); test: ITC; Malvern PEAQ-ITC, 20 °C; C-SH2 mutant tSH2 (R192A, printed R190A in the methods) in 20 mM Hepes pH 8.2, 150 mM NaCl, 5 mM β-mercaptoethanol; titrated with 300 μM peptide; one-site binding model; constant printed under the column Kd2

Substance | kobs fast (ZAP-70 tSH2 WT (1–256) [1]) | kobs slow (ZAP-70 tSH2 WT (1–256) [1]) | Kd1 (ZAP-70 tSH2 WT (1–256) [4]) | also measured
ITAM-Y2P-ζ1 E13A (peptide) | 24.4 s⁻¹ | 0.022 s⁻¹ |  | 
doubly phosphorylated ITAM-ζ1 peptide (ITAM-Y2P-ζ1) (from UniProt P20963 61-89) | 23.9 s⁻¹ | 0.262 s⁻¹ |  | Kd1 (ZAP-70 tSH2 R39A [2]): 8 nM; kobs fast (ZAP-70 tSH2 F117A): 21.8 s⁻¹; kobs slow (ZAP-70 tSH2 F117A): 0.0517 s⁻¹; kobs slow (ZAP-70 tSH2 R192A): 0.006 s⁻¹; kobs fast (ZAP-70 tSH2 R39A [3]): 24.8 s⁻¹; kobs fast (ZAP-70 tSH2 R43P): 28 s⁻¹; kobs slow (ZAP-70 tSH2 R43P): 2.25 s⁻¹
doubly phosphorylated ITAM-ζ3 peptide (ITAM-Y2P-ζ3) (from UniProt P20963 131-159) | 21.4 s⁻¹ | 0.012 s⁻¹ | 6.8 nM | 
doubly-phosphorylated ITAM-ζ1 peptide with E13A |  |  |  | pKd [5]: 5.01
single phosphotyrosine ITAM-ζ1 peptide (ITAM-YP-ζ1) (from UniProt P20963 61-89) | 28.6 s⁻¹ |  | 3.7 nM | 
